Measurements taken from article PMC8639918, “Mechanism of phosphate sensing and signaling revealed by rice SPX1-PHR2 complex structure” (Nature Communications, 2021).
Where “and” joins values, the source holds several entries; their conditions need not be identical. Identical values can stand only once.

What was measured:
[1] = biological target: T1, SPX1^1–259 (C-terminally truncated fragment of rice SPX1) (rice, UniProt Q69XJ0 1-259); assay: SEC-MALS; Superdex 200 Increase 10/300 GL, buffer C (20 mM Tris/HCl pH 8.0, 200 mM NaCl, 1 mM TCEP) with 1 mM InsP6, 2–3 mg/ml, 4 °C; details: both partners purified
T1 construct: also called OsSPX1; not shown: His10, N-terminal, cleaved; MsyB, N-terminal, cleaved
T1 sequence (looked up): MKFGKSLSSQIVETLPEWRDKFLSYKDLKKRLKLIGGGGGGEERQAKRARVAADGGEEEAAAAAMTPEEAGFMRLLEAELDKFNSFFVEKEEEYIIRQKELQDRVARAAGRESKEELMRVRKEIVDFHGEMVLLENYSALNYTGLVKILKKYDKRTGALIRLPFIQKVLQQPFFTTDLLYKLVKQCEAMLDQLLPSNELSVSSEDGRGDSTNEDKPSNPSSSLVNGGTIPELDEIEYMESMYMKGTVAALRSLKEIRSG

[2] = biological target: the molecule itself; assay: SEC-MALS; Superdex 200 Increase 10/300 GL, buffer C (20 mM Tris/HCl pH 8.0, 200 mM NaCl, 1 mM TCEP) without InsP6, 2–3 mg/ml, 4 °C
[3] = biological target: T1, SPX1^1–259 (C-terminally truncated …); assay: ITC; PHR2^3M at 120 μM injected into SPX1^1–259 at 10 μM, in presence or absence of 1 mM InsP6; 25 °C; buffer F (20 mM HEPES/NaOH pH 7.5, 200 mM NaCl, 2 mM β-mercaptoethanol); details: both partners purified
[4] = biological target: T2, SPX1^1–198 E135A (rice, UniProt Q69XJ0 1-198, E135A); assay: SEC; gel filtration of SPX1^1–198 and PHR2^248–380 and their mutants, buffer C (20 mM Tris/HCl pH 8.0, 200 mM NaCl, 1 mM TCEP) with or without InsP6 as the methods put it; samples incubated at 4 °C for 12 h (Figs. 2c, 5b, Supplementary Fig. 3a–d); details: both partners purified
T2 construct: SPX1 (OsSPX1), rice, residues 1-198; not shown: His10, N-terminal, cleaved; MsyB, N-terminal, cleaved
T2 sequence (looked up): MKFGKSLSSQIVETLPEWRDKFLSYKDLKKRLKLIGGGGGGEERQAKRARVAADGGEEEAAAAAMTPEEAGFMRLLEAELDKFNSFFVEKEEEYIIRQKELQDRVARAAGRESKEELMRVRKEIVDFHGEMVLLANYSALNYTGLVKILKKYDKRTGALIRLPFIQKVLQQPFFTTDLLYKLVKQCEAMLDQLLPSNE

[5] = biological target: T3, SPX1^1–198 (rice, UniProt Q69XJ0 1-198); assay: as above; details: both partners purified
T3 construct: SPX1 (OsSPX1), rice, residues 1-198; also called SPX1 (residues 1–198); not shown: His10, N-terminal, cleaved; MsyB, N-terminal, cleaved
T3 sequence (looked up): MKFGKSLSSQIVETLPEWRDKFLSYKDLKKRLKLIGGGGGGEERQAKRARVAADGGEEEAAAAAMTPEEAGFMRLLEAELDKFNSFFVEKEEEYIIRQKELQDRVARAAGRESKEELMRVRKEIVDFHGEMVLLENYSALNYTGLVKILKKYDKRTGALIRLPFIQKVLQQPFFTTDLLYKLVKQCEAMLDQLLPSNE

[6] = biological target: T4, SPX1^1–198 Y180A (rice, UniProt Q69XJ0 1-198, Y180A); assay: as above; details: both partners purified
T4 construct: SPX1 (OsSPX1), rice, residues 1-198; not shown: His10, N-terminal, cleaved; MsyB, N-terminal, cleaved
T4 sequence (looked up): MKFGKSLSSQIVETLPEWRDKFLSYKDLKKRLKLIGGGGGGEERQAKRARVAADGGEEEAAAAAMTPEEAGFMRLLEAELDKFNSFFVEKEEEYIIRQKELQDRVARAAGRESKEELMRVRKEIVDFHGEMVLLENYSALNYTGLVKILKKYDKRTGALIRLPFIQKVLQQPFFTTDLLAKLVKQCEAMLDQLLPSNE

B1: PHR2^230–426 (MYB and CC domain-containing fragment of rice PHR2) (domain or fragment)
chain: not shown
notes: Alone in solution a mixture of dimer and tetramer; one copy in the complex with SPX1; not shown: His10, N-terminal, cleaved; MsyB, N-terminal, cleaved
With B1 the “stoichiometry N” value [1] was 1 and the “stoichiometry N” value [2] was 2 and 4.

B2: PHR2^(230–426 L348A/L358A/I362A) (domain or fragment)
chain: not shown
notes: also called PHR2^3M; PHR2 monomeric mutant; not shown: His10, N-terminal, cleaved; MsyB, N-terminal, cleaved
In the case of B2, the Kd [3] is reported as about 170 nM.

B3: Arabidopsis PHR1^227–358 (MYB and CC domains only) (domain or fragment)
chain: not shown
notes: The methods describe only SPX1 and PHR2 constructs; also called AtPHR1
For B3, the “stoichiometry N” value [2] was 2.

B4: PHR2^248–380 (domain or fragment)
chain: not shown
notes: PHR2 (OsPHR2), rice, residues 248-380; also called PHR2 (residues 248–380); not shown: His10, N-terminal, cleaved; MsyB, N-terminal, cleaved
B4: binds [4]; binds [5]; binds [6].

B5: PHR2^248–380 E353A (domain or fragment)
chain: not shown
notes: PHR2 (OsPHR2), rice, residues 248-380; not shown: His10, N-terminal, cleaved; MsyB, N-terminal, cleaved
B5: binds [5].

B6: PHR2^248–380 E363A (domain or fragment)
chain: not shown
notes: as for B5
B6: binds [5].

B7: PHR2^248–380 R248A (domain or fragment)
chain: not shown
notes: PHR2 (OsPHR2), rice, residues 248-380; also called PHR2 R248 mutant; not shown: His10, N-terminal, cleaved; MsyB, N-terminal, cleaved
B7: binds [5].

B8: PHR2^248–380 E257A (domain or fragment)
chain: not shown
notes: PHR2 (OsPHR2), rice, residues 248-380; also called PHR2 E257 mutant; not shown: His10, N-terminal, cleaved; MsyB, N-terminal, cleaved
B8: binds [5].
